In patent US20240352477A1 (ACADEMIA SINICA, published 2024):
Each block holds one binder with its values, some of them ahead of it.

What was measured:
[1] = molecular target: T1, HXK5-GFP (Ubi:HXK5-GFP) (rice, UniProt Q5W676 1-507); assay: co-IP with RFP-Trap from co-transfected rice protoplasts, immunoblot
T1 construct: Expressed transiently in rice protoplasts; not shown: GFP reporter (pUbi:ccdB-GFP vector)
Experimental: (§1) FIGS. 13a to 13b. CIPK15 and HXK5/6 interact and localize at mitochondria under aerobic and hypoxic conditions. (FIG. 13a) Rice protoplasts were co-transfected with Ubi:CIPK15-mCherry and Ubi:HXK5-GFP, Ubi:HX6-GFP or Ubi:GFP (as negative control), before being cultured in medium containing 400 mM glucose with shaking (aerobic) for 12 h. Then, total proteins were extracted and pulled down using RFP trap®. Anti-RFP and anti-GFP antibodies were used to detect co-immunoprecipitated (co-IP) CIPK15-mCherry and HXK5-GFP or GFP, respectively. (FIG. 13b) Rice protoplasts were transfected with Ubi:CIPK15-mCherry, Ubi:HXK5-mCherry or Ubi:HXK6-mCherry and stained with the mitochondrial marker MitoTracker® Green FM, before being examined under confocal microscopy. T: Transmission image. Scale bar=[…]. […]
(§2) To explore these latter interactions in vivo using co-IP assays, we co-transfected rice protoplasts with Ubi:CIPK15-mCherry and Ubi:HXK5-GFP, Ubi:HXK6-GFP or Ubi:GFP (negative control) constructs. […] Our anti-RFP antibodies detected CIPK15-mCherry proteins in all eluents of CIPK15-mCherry co-IP fractions, but anti-GFP antibodies detected HXK5-GFP and HXK6-GFP present in the CIPK15-mCherry complex (FIG. 13a).

[2] = molecular target: T2, HXK6-GFP (Ubi:HXK6-GFP) (rice, UniProt Q8LQ68 1-506); assay: as above
T2 construct: Expressed transiently in rice protoplasts; also called Ubi:HX6-GFP; not shown: GFP reporter (pUbi:ccdB-GFP vector)
Experimental: as §1, §2

[3] = molecular target: T3, HXK5-nYFP (CaMV35S:HXK5-nYFP) (rice, UniProt Q5W676 1-507); assay: bimolecular fluorescence complementation (BiFC) in rice protoplasts
T3 construct: BiFC construct in rice protoplasts; not shown: N-terminal half of YFP (nYFP, p35S:ccdB-nYFP vector)
Experimental: (§3) FIGS. 3a to 3g. HXK6 and VDAC1 interact with CIPK15 on mitochondria and suppress CIPK15-regulated promoters. (FIG. 3a) BiFC assay in which rice protoplasts were co-transfected with CaWV35S:cYFP-CIPK15 or CaWV-nYFP (negative control) and CaMV35S:HXK5/6-nYFP or CaMV35S:cYFP (negative control). (FIG. 3b, FIG. 3c, FIG. 3f) Rice protoplasts were transfected with plasmids, cultured in medium containing 400 mM glucose with shaking for 12 h, and then examined under confocal microscopy. Scale bar=[…]. C: cytoplasm; Mt: mitochondria. (FIG. 3b) Rice protoplasts were co-transfected with Ubi:CIPK15-mTagBFP and Ubi:HXK6-mCherry and stained with the mitochondrial marker MitoTracker® Green FM. (FIG. 3c) Rice protoplasts were co-transfected with Ubi:CIPK15-mCherry and Ubi:GFP, Ubi:HXK6-GFP, or Ubi:HXK6(Ri) constructs. (FIG. 3d, FIG. 3g) Rice protoplasts were co-transfected with effector and reporter plasmids, cultured in medium contained 400 mM glucose with shaking, and assayed for luciferase activity. (FIG. 3e) Rice protoplasts were co-transfected with Ubi:VDAC1-GFP, Ubi:CIPK15-HA and Ubi:HXK6-GFP or Ubi:HXK6-mCherry, cultured in medium containing 400 mM glucose with shaking for 12 h, and total proteins were extracted and pulled down using GFP trap®. Anti-GFP, anti-HA and anti-mRFP antibodies were used to detect HXK6-GFP or VDAC1-GFP, CIPK15-HA, and HXK6-mCherry, respectively. […]

[4] = molecular target: T4, HXK6-nYFP (CaMV35S:HXK6-nYFP) (rice, UniProt Q8LQ68 1-506); assay: as above
T4 construct: BiFC construct in rice protoplasts; not shown: N-terminal half of YFP (nYFP, p35S:ccdB-nYFP vector)
Experimental: as §3

[5] = molecular target: T5, HXK6-mCherry (Ubi:HXK6-mCherry) (rice, UniProt Q8LQ68 1-506); assay: co-IP with GFP-Trap from co-transfected rice protoplasts, immunoblot
T5 construct: Expressed transiently in rice protoplasts; not shown: mCherry reporter (pUbi:ccdB-mCherry vector)
Experimental: Samples were extracted from rice protoplasts in lysis buffer containing 150 mM NaCl, 0.5% NP4-0, 20 mM Tris-HCl (pH 7.5), and protease inhibitor (Roche) for 1 h at 4° C. and centrifuged at 13,000 rpm for 30 min at 4° C. Supernatants were transferred to new tubes and GFP- or RFP-conjugated proteins were pulled down with GFP-Trap®_MA beads or RFP-Trap®_MA beads. Precipitated proteins were subjected to immunoblot analysis using anti-RFP and anti-GFP antibodies.

T5 sequence (Q8LQ68 whole entry): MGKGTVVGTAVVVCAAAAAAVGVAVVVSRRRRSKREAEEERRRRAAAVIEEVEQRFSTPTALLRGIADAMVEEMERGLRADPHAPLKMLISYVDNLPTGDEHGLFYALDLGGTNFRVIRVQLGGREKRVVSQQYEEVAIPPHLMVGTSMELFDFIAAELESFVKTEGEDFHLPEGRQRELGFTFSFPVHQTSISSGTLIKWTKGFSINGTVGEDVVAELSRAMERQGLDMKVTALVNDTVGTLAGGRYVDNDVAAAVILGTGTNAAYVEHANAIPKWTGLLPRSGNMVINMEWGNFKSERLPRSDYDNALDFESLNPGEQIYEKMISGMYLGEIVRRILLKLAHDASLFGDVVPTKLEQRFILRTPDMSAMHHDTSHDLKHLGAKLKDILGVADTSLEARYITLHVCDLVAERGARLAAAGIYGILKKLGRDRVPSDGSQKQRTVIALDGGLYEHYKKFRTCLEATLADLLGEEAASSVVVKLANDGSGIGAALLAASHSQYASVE
T4 sequence (Q8LQ68 whole entry): as above
T2 sequence (Q8LQ68 whole entry): as above
T1 sequence (Q5W676 whole entry): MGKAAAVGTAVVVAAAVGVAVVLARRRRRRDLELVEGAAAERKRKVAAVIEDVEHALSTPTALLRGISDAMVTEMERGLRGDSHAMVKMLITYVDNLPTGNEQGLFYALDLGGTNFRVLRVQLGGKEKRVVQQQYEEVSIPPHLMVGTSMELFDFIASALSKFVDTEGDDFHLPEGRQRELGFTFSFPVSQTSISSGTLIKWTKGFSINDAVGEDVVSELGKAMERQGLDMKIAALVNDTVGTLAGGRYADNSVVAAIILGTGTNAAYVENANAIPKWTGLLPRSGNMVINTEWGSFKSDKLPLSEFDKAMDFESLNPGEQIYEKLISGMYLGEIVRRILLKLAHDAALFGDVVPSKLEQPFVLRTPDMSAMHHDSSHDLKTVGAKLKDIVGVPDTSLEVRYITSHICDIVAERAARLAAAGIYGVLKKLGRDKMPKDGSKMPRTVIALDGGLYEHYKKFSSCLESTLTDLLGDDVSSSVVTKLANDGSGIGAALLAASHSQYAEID
T3 sequence (Q5W676 whole entry): as above

binding result [1]: binds
binding result [2]: binds
B1: CIPK15-mCherry (Ubi:CIPK15-mCherry) (enzyme)
chain: MESRGKILMERYELGRLLGKGTFGKVHYARNLESNQSVAIKMMDKQQILKVGLSEQIRREITTMRLVAHKNIVQLHEVMATRNKIYFVMEYVKGGELFEKVAKRGKLTEVVAHKYFQQLISAVDYCHSRGVYHRDLKPENLLLDENENLKVSDFGLSALSESKRQDGLLHTTCGTPAYVAPEVISKIGYDGAKSDIWSCGVILFVLVAGYLPFQGPNLMEMYRKIQHGEFRCPGWFSRKLQKLLYKIMDPNPSTRISIQKIKESTWFRKGPEENRILKERTLNENTTKNVAPVLGVRRKKNAHEDVKPMSVTNLNAFEIISFSKGFDLSGMFIVKEWRNEARFTSDKSASTIISKLEDVAKALNLRVRKKDNGVVKMQGRKEGRNGVLQFDIEIFEVTTSYHIIEMKQTSGDSLEYRQLLEEGIRPALKDIVLA
notes: Expressed transiently in rice protoplasts; not shown: mCherry reporter (pUbi:ccdB-mCherry vector)

binding result [3]: binds
binding result [4]: binds
B2: cYFP-CIPK15 (CaMV35S:cYFP-CIPK15) (enzyme)
chain: B1 chain
notes: BiFC construct in rice protoplasts; not shown: C-terminal half of YFP (cYFP, p35S:cYFP-ccdB vector)

binding result [5]: binds
B3: VDAC1-GFP (Ubi:VDAC1-GFP) (other, rice, UniProt Q6K548 2-274, looked up)
chain: VGPGLYPEIGKKARDLLYRDYQTDHKFTLTTYTSNGVAITATSTKKADLIFGEIQSQIKNKNITVDVKANSDSNVVTTVTVDELTPGLKSILSFAVPDQRSGKFELQYSHDYAGVSASIGLTASPVVNLSSVFGTKALAVGADVSLDTATGNLTKYNAGLSFSNDDLIASLNLNNKGDSLTASYYHIVNHSATAVGAELTHSFSSNENSLTFGTQHTLDPLTVVKARFNNSGKASALLQHEWRPKSVWTISAEVDTKAIDKSSKVGIAVALKP
notes: Expressed transiently in rice protoplasts and pulled down with GFP-Trap; not shown: GFP reporter (pUbi:ccdB-GFP vector)
